Source: the supplement of paper PMC10126150
± gives the standard deviation of the averaged measurements.

System: ATP
Experiment: switch fluorescence ratio, 500 uM ATP over buffer (Cy3 cluster intensity, sum of 5 cycles each) (fold (ratio)); higher = stronger signal-on switching upon ATP binding; sequences stand for … in TCGTCGGCAGCGTCAGATGTGTATAAGAGACAGTTTTTTTTTTTTTTTTTTTTTTTTT…TC
Settings: aptamer strand: ATP DNA aptamer (quencher-CACCTGGGGGAGTATTGCGGAGGAAGG + anchor), 100 nM annealed; ATP concentration: 500 uM
How it was run: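 For every switch-domain sequence, the fluorescence ratio is the mean of per-cluster values, each being summed target-cycle Cy3 intensity over summed buffer-cycle Cy3 intensity. Clusters outside 100-1000 RFU were excluded. On a modified Illumina MiSeq flow-cell, the Cy3-labelled switching-strand clusters were annealed to 100 nM quencher-labelled ATP aptamer, imaged in selection buffer and then after 15 min with 500 uM ATP at 22 °C. Five such cycles were run, with NaOH stripping and re-annealing between them.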
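Also: ATP exposure 15 min at 22 °C before imaging.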

Row | Sequence | switch fluorescence ratio
1 | ACCTGGATAC | 1.86 ± 0.019
2 | ACCTGGGCGC | 1.2 ± 0.12
3 | ACCTGTATTT | 1 ± 0.02
4 | ACCTGTGAGT | 0.9909 ± 0.0019
5 | ACCTTCTTTT | 1.11 ± 0.11
6 | ACCTTGAGAG | 1 ± 0.011
7 | ACCTTGGTGT | 1.01 ± 0.053
8 | ACCTTTTTTG | 0.992 ± 0.024
9 | ACGAAAACGC | 1.36 ± 0.23
10 | ACGAAAGTCT | 1.03 ± 0.041
11 | ACGAACGGTA | 1.37 ± 0.032
12 | ACGAAGAGTT | 1.05 ± 0.019
13 | ACGAATGCGT | 0.975 ± 0.047
14 | ACGACTGGGG | 1.02 ± 0.03
15 | ACGACTTGGT | 1.09 ± 0.11
16 | ACGACTTTGT | 1.02 ± 0.032
17 | ACGAGAGAAA | 0.974 ± 0.017
18 | ACGAGCTGCT | 1.032 ± 0.0038
19 | ACGAGTAGCT | 1.01 ± 0.014
20 | ACGAGTCTGG | 1.08 ± 0.039
21 | ACGAGTGTTG | 1.03 ± 0.037
22 | ACGAGTTCAT | 0.999 ± 0.017
23 | ACGAGTTCCT | 0.989 ± 0.056
24 | ACGATAGGGC | 1.06 ± 0.046
25 | ACGATGTATC | 1.06 ± 0.049
26 | ACGATTGGTG | 1.07 ± 0.056

Row | Sequence | switch fluorescence ratio
27 | ACGCAACGCC | 1.6634 ± 0.0003
28 | ACGCCTACGA | 1.15 ± 0.09
29 | ACGCGCGCGC | 0.987 ± 0.036
30 | ACGCGGCAGG | 1.02 ± 0.022
31 | ACGCGGCGGG | 0.977 ± 0.036
32 | ACGCTAATGT | 1.35 ± 0.23
33 | ACGCTAGGGC | 1.16 ± 0.039
34 | ACGCTGGGGA | 0.993 ± 0.016
35 | ACGGAAACGC | 1.1 ± 0.02
36 | ACGGAAGTTA | 1.02 ± 0.025
37 | ACGGACCATT | 1.27 ± 0.014
38 | ACGGAGACCG | 1.01 ± 0.038
39 | ACGGAGCCTT | 1.32 ± 0.036
40 | ACGGAGGGGT | 1.14 ± 0.13
41 | ACGGAGGGTG | 1.029 ± 0.0088
42 | ACGGATTTGG | 0.9926 ± 0.0095
43 | ACGGCAACAT | 1.31 ± 0.1
44 | ACGGCAAGGA | 1.12 ± 0.028
45 | ACGGCAGTGA | 1.0394 ± 0.00012
46 | ACGGCCGGTC | 0.9773 ± 0.0026
47 | ACGGCGGTGC | 1.034 ± 0.0078
48 | ACGGCTGAGC | 1.04 ± 0.03
49 | ACGGCTGTTA | 1.012 ± 0.0046
50 | ACGGGAAAAG | 1.01 ± 0.035
51 | ACGGGAATTG | 1.04 ± 0.019
52 | ACGGGACGGG | 1.02 ± 0.035

Row | Sequence | switch fluorescence ratio
53 | ACGGGCAATG | 1.32 ± 0.16
54 | ACGGGCATTC | 1.76 ± 0.42
55 | ACGGGCGGGG | 1.02 ± 0.021
56 | ACGGGCTAGG | 1.01 ± 0.027
57 | ACGGGGAATG | 1.01 ± 0.056
58 | ACGGGGAGGT | 0.981 ± 0.04
59 | ACGGGGAGTT | 1.05 ± 0.031
60 | ACGGGGCATT | 1 ± 0.043
61 | ACGGGGCTTT | 1.05 ± 0.024
62 | ACGGGGGGAT | 1.04 ± 0.089
63 | ACGGGGGGGA | 1.03 ± 0.032
64 | ACGGGGGTGT | 0.984 ± 0.024
65 | ACGGGGTTTC | 1.01 ± 0.021
66 | ACGGGTATTA | 0.9907 ± 0.0014
67 | ACGGGTATTG | 1.02 ± 0.034
68 | ACGGGTCCGT | 0.986 ± 0.011
69 | ACGGGTCGGA | 1 ± 0.027
70 | ACGGGTGTAG | 0.989 ± 0.052
71 | ACGGGTTCGC | 0.988 ± 0.022
72 | ACGGTAATTC | 1.184 ± 0.011
73 | ACGGTAGGGT | 1.12 ± 0.06
74 | ACGGTCCAAG | 1.02 ± 0.015
75 | ACGGTGACGT | 1.01 ± 0.028
76 | ACGGTGCATG | 1.018 ± 0.006
77 | ACGGTGTATT | 0.998 ± 0.037
78 | ACGGTTGCGC | 1.01 ± 0.034

Row | Sequence | switch fluorescence ratio
79 | ACGGTTTGGC | 0.939 ± 0.063
80 | ACGGTTTTAA | 1 ± 0.03
81 | ACGGTTTTAC | 1.12 ± 0.012
82 | ACGTAAAAAG | 1.01 ± 0.065
83 | ACGTAACATA | 1.22 ± 0.017
84 | ACGTACTACT | 1.3895 ± 0.00013
85 | ACGTACTATT | 1.45 ± 0.23
86 | ACGTAGGTTC | 1.063 ± 0.0048
87 | ACGTAGGTTT | 1.03 ± 0.046
88 | ACGTATCGGC | 1.056 ± 0.0075
89 | ACGTATTCAT | 1.11 ± 0.013
90 | ACGTATTTTT | 1.12 ± 0.018
91 | ACGTCCCGGG | 1.09 ± 0.015
92 | ACGTCGCATG | 1.09 ± 0.046
93 | ACGTCGGGGG | 1 ± 0.021
94 | ACGTGACAGG | 1.22 ± 0.013
95 | ACGTGATTTG | 1.04 ± 0.025
96 | ACGTGCAACT | 0.981 ± 0.049
97 | ACGTGGGGGA | 1.02 ± 0.051
98 | ACGTGTGGGA | 1.04 ± 0.02
99 | ACGTTAAGTG | 1 ± 0.011
100 | ACGTTAGGGT | 1.04 ± 0.058
101 | ACGTTATTTT | 1.126 ± 0.0061
102 | ACGTTGACAG | 1.05 ± 0.011
103 | ACGTTGCAGC | 1.047 ± 0.006
104 | ACGTTGCGAG | 0.994 ± 0.015

Row | Sequence | switch fluorescence ratio
105 | ACGTTGCGTT | 1.02 ± 0.025
106 | ACGTTGCTTA | 1.007 ± 0.0052
107 | ACGTTGGAGA | 1.06 ± 0.0051
108 | ACGTTGGTAA | 1.02 ± 0.032
109 | ACGTTGTACA | 1.06 ± 0.038
110 | ACGTTGTACT | 1.14 ± 0.037
111 | ACGTTTATGT | 1.02 ± 0.02
112 | ACGTTTGGGG | 0.968 ± 0.049
113 | ACGTTTGTAT | 1 ± 0.031
114 | ACGTTTTGTG | 0.96 ± 0.028
115 | ACTAAAAAAA | 0.991 ± 0.025
116 | ACTAACGGGA | 1.39 ± 0.15
117 | ACTAATAAGT | 0.999 ± 0.028
118 | ACTAATGGGC | 1.03 ± 0.026
119 | ACTAATGTGG | 0.9959 ± 0.0068
120 | ACTACAGACG | 1.11 ± 0.061
121 | ACTACCTTAC | 3.15 ± 0.077
122 | ACTACGGATT | 1.06 ± 0.026
123 | ACTACGTGGG | 1.0708 ± 0.00037
124 | ACTACGTTAC | 2.88 ± 0.039
125 | ACTAGAAGAT | 0.9829 ± 0.0038
126 | ACTAGAAGGG | 0.9833 ± 0.0037
127 | ACTAGCAGCT | 1.01 ± 0.025
128 | ACTAGCTCTG | 1 ± 0.023
129 | ACTAGGCCGA | 1.01 ± 0.044
130 | ACTAGGCTGG | 1.01 ± 0.028

Row | Sequence | switch fluorescence ratio
131 | ACTAGGGGCA | 0.98 ± 0.036
132 | ACTAGGGTCT | 1 ± 0.081
133 | ACTAGGGTTT | 1.018 ± 0.0027
134 | ACTAGTTTTG | 0.976 ± 0.033
135 | ACTATATTTA | 1.034 ± 0.0063
136 | ACTATATTTG | 1.04 ± 0.022
137 | ACTATCCAGG | 2.226 ± 0.0049
138 | ACTATCGAAA | 1.09 ± 0.03
139 | ACTATGAGCC | 1.01 ± 0.021
140 | ACTATGGGGC | 1.01 ± 0.081
141 | ACTATGTGGT | 0.9971 ± 0.0096
142 | ACTATTATTC | 1.05 ± 0.034
143 | ACTATTTCGA | 1.01 ± 0.03
144 | ACTCACATAG | 1.217 ± 0.0056
145 | ACTCAGACCT | 1.3 ± 0.067
146 | ACTCAGGTCC | 1.077 ± 0.0054
147 | ACTCAGTGTC | 1.05 ± 0.023
148 | ACTCCAATGG | 1.85 ± 0.12
149 | ACTCGATGTG | 0.989 ± 0.045
150 | ACTCGGGGTT | 0.998 ± 0.04
151 | ACTCGGGTAG | 1.028 ± 0.0056
152 | ACTCGGTGTG | 0.992 ± 0.029
153 | ACTCTACTTG | 1.42 ± 0.16
